Test results as given in PMC10954479 (Nucleic Acids Research, 2024).
Substitutions are numbered along the chain they refer to. In names and notes the source's numbering stands.

T1: HDAC4GRD (residues 62–192) F93D mutant (human, UniProt P56524 62-192, F93D)
T1 sequence: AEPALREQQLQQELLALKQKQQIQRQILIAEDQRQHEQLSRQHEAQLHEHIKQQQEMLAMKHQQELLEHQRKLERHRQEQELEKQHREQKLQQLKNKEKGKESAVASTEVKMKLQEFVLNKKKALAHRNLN

B1: human HDAC4 glutamine-rich domain (HDAC4GRD, residues 62–192), wild type (domain or fragment)
chain: T1 sequence with D32F
B2: HDAC4GRD (residues 62–192) H109D mutant (domain or fragment)
chain: T1 sequence with D32F, H48D
B3: Site-2 DNA (dsDNA)
DNA 1: CTAAGCAAATGAGATGAATATGCAGGGCACCATGCTAAAAATAAAATGGTTTCATGGTGCTAGTGAGGAAGGAA
DNA 2: TTCCTTCCTCACTAGCACCATGAAACCATTTTATTTTTAGCATGGTGCCCTGCATATTCATCTCATTTGCTTAG
B4: human MEF2A MADS-box/MEF2s domain (residues 1–95) (domain or fragment)
chain: MGRKKIQITRIMDERNRQVTFTKRKFGLMKKAYELSVLCDCEIALIIFNSSNKLFQYASTDMDKVLLKYTEYNEPHESRTNSDIVEALNKKEHRG
B5: Site-1 DNA (dsDNA)
DNA 1: GGGAAAGTTTCTATTATTAGCAGAGATA
DNA 2: TATCTCTGCTAATAATAGAAACTTTCCC
B6: 15 bp crystallization DNA (dsDNA)
DNA 1: AAACTATTTATAAGA
DNA 2: TCTTATAAATAGTTT
B7: 28 bp EMSA DNA (dsDNA)
DNA 1: GGGAAAGTTTCTATTATTAGCAGAGATA
DNA 2: TATCTCTGCTAATAATAGAAACTTTCCC

Columns and labels:
crystal structure = biological target: the molecule itself; assay: crystal structure
SEC = biological target: the molecule itself; assay: SEC
MEF2A1-95;HDAC4GRD WT [1] = biological target: T2, MEF2A1-95;HDAC4GRD WT (Homo sapiens;Homo sapiens, UniProt Q02078;P56524 1-95;62-192, |); assay: pull-down
MEF2A1-95;HDAC4GRD H109D [2] = biological target: T3, MEF2A1-95;HDAC4GRD H109D (Homo sapiens;Homo sapiens, UniProt Q02078;P56524 1-95;62-192, |H109D); assay: pull-down
[3] = biological target: T1, HDAC4GRD (residues 62–192) F93D mutant; assay: native gel or EMSA
[4] = biological target: B2; assay: native gel or EMSA
MEF2A1-95;HDAC4GRD WT [5] = biological target: T2, MEF2A1-95;HDAC4GRD WT; assay: pull-down; remark: listed apart in the source
MEF2A1-95;HDAC4GRD WT [6] = biological target: T2, MEF2A1-95;HDAC4GRD WT; assay: X-ray crystallography
MEF2A1-95;HDAC4GRD WT [7] = biological target: T2, MEF2A1-95;HDAC4GRD WT; assay: EMSA
MEF2A1-95;HDAC4GRD H109D [8] = biological target: T3, MEF2A1-95;HDAC4GRD H109D; assay: EMSA
MEF2A1-95;HDAC4GRD F93D = MEF2A1-95;HDAC4GRD F93D (Homo sapiens;Homo sapiens, UniProt Q02078;P56524 1-95;62-192, |F93D); assay: EMSA

## B1
Crystal structure
  stoichiometry N: 2

## B2
SEC
  binding result: binds

## B3
MEF2A1-95;HDAC4GRD WT [1]
  binding result: binds
MEF2A1-95;HDAC4GRD H109D [2]
  binding result: binds

## B4
Crystal structure
  stoichiometry N: 2
[3]
  binding result: binds
[4]
  binding result: binds

## B5
MEF2A1-95;HDAC4GRD WT [5]
  binding result: binds

## B6
MEF2A1-95;HDAC4GRD WT [6]
  binding result: binds

## B7
MEF2A1-95;HDAC4GRD WT [7]
  binding result: binds
MEF2A1-95;HDAC4GRD H109D [8]
  binding result: binds
MEF2A1-95;HDAC4GRD F93D
  binding result: binds
